This note sets out measurements from patent US11203621B2, “PH-responsive proteolysis probe” (RIKEN, priority 2015, dated 2021).

One data set concerns pepsin. As to the kind of experiment: Resistance to degradation by acidic protease (incubation in pH 7.0 / pH 4.0 / pH 4.0 + pepsin buffers). Format: physicochemical. The protocol: An Escherichia coli test was conducted which included a treatment of incubating purified recombinant proteins in each of three reaction buffers (pH 7.0/no pepsin, pH 4.0/no pepsin, pH 4.0/0.05% pepsin). The reaction buffers had been prepared as 25 mM HEPES buffer (pH 7.0) or 25 mM acetic acid buffer (pH 4.0) (119 mM NaCl, 2.5 mM KCl, 2 mM CaCl2, 2 mM MgCl2, and 30 mM glucose). A mixture obtained by adding each purified protein to each of the reaction buffers was incubated at 37° C. for 2 hours. The mixture was divided into two, each of which was then subjected to fluorescence intensity measurement and western blotting. The fluorescence intensity measurement was conducted after the pH of the mixture was prepared by diluting the mixture by 200 folds with use of a buffer at pH 7.0. For detection of a protein by means of western blotting, the following antibodies were used. AFFP: a rabbit anti-Azami-Green antibody (MBL, PM052M). EGFP and Ypet: a rabbit anti-GFP antibody (CST, #2555).
With use of SRAI/pRSETB, the same procedure as the fluorescence intensity measurement in the item <Confirmation of resistance to degradation by acidic protease> was carried out. Fluorescence intensity measurement was conducted by irradiating the AFFP part in SRAI with excitation light of 410 nm and irradiating the Ypet part in SRAI with excitation light of 500 nm.
Experiments were conducted to determine whether or not a probe (Rosella) reported by Rosado et al. was suitable for measuring autophagy as compared with SRAI. A construct of Rosella was expressed in Escherichia coli, and a recombinant fluorescent protein was purified. The recombinant fluorescent protein was incubated for 2 hours at 37° C. in a reaction buffer at pH 7.0, a reaction buffer at pH 4.0 (with 0.05% pepsin), and a reaction buffer at pH 4.0 (without 0.05% pepsin) in accordance with a previous report (Katayama, H, et al. (2008) Cell Struct. Funct. 33, 1-12), and was subjected to fluorescence measurement. Before the fluorescence measurement, pHs of these samples were adjusted to coincide with each other by diluting each sample with a buffer (pH 7.0) by 200 folds. The reaction buffers had each been prepared as 25 mM HEPES buffer (pH 7.0) or 25 mM acetic acid buffer (pH 4.0) (119 mM NaCl, 2.5 mM KCl, 2 mM CaCl2, 2 mM MgCl2, and 30 mM Glucose).

In data set [1] the test system is MEF cells. The experiment in a line: Detection of autophagy in mammalian cells (ratio imaging). Particulars: living MEF cells, HBSS 37° C. 2 hours. In kind it is cell-based, Mouse. The protocol: SRAI/pcDNA3 was introduced into MEF cells so as to express SRAI therein, and whether or not SRAI was suitable for observation of autophagy was evaluated. As a control, mCherry-EGFP was used. In order for mCherry-EGFP to be equivalent to an amino acid sequence presented in a previous report (Elsa-Noah N'Diaye, et al., (2009) EMBO reports 10, 173-179), (i) a BamHI/HindIII fragment of mCherry, which fragment contained no stop codon, (ii) a HindIII/EcoRI fragment of EGFP, in which fragment cDNA encoding a linker ([…]) (SEQ ID NO: 6) at N-terminus was added, and (iii) a BamHI/EcoRI fragment of pcDNA3 were ligated with each other, thereby producing mCherry-EGFP/pcDNA3. […]
In imaging, Cool SNAP HQ2 (Photometrics) was used as a camera, UplanF1 40× oil N.A.1.30 (Olympus) was used as an objective lens, and U-MCFPH Q (for AFFP), U-MYFPH Q (for Ypet), U-MRFPH Q (for mCherry), and U-MGFPH Q (for EGFP) were used as filter cubes (each cube is manufactured by Olympus). Images were obtained and analyzed with use of MetaMorph (Universal Imaging Corporation). […]
Further, Rosella was introduced into MEF cells in an attempt to visualize and detect autophagy. […] Images were obtained and analyzed with use of MetaMorph (Universal Imaging Corporation), and ratio images were produced as DsRed.T3/SE P in IMD display in a range of 0 to 1 (the scale bar for FIG. 12 is 20 μm).

For data set [2], the system named is MEF cells. As to the kind of experiment: Detection of autophagy in fixed mammalian cells. In kind it is cell-based, Mouse. The settings on record: MEF cells fixed 15 minutes in PBS containing 4% PFA. The protocol:
Subsequently, examination was conducted to examine whether or not SRAI would detection of autophagy also in fixed cells. The same operations as those of the autophagy detection above were conducted, except that (i) only SRAI was observed and (ii) after observation of living cells, the cells were fixed and observed again in the same field of view. The living cells were fixed for 15 minutes at room temperature in PBS containing 4% PFA, and cells thus fixed were subjected to washing with use of HBSS (5 minutes×3 times) and then subjected to observation for the second time.

The test system of data set [3] is MEF cells. As to the kind of experiment: Detection of mitophagy in mammalian cells using mt-SRAI′. The settings on record: 30 μM CCCP, 18 hours, MEF cells with mCherry-Parkin, compared to before addition. In kind it is cell-based, Mouse. The protocol:
A construct that expresses mt-SRAI′ was introduced into MEF cells, in an attempt to visualize and detect mitophagy. mt-SRAI/pMCSTRE3G, pEF1α-Tet3G, and mCherry-Parkin/pcDNA3 which is a factor necessary for mitophagy, were introduced, each in an amount of 0.5 μg, into MEF cells with use of Lipofectamine (Registered Trademark) 2000. Six hours after the introduction, the medium was replaced by a nutrient medium containing 1 μg/ml doxycycline. Twenty-four hours later, induction of expression was stopped, and the nutrient medium was replaced by a nutrient medium containing no doxycycline, so that localization and degradation of a probe remaining in the cytoplasm was encouraged. Eighteen hours later, mitophagy was induced with use of 30 μM carbonyl cyanide m-chlorophenylhydrazone (CCCP), and then 18 hours later, the cells were subjected to imaging. […] In performing the imaging and obtaining and analyzing the images, the same conditions as those for the detection of autophagy in fixed mammalian cells were applied. Ratio images were generated in IMD display in a range of 0 to 0.4.

The nature of data set [4]: Escherichia coli test: fluorescence intensity of purified recombinant proteins. Particulars: expressed at 18° C., buffer at pH 7.0, equal protein concentration. Format: physicochemical. The protocol: AFFP and mAG407 were expressed in Escherichia coli (18° C.) and a mammalian cell (Mouse embryonic fibroblast (MEF) cell) (37° C.) so as to be compared with each other in terms of fluorescence intensity. Comparison of fluorescence intensity between AFFP and mAG407 which were expressed in Escherichia coli was conducted in accordance with a previous report (Katayama, H, et al., (2008) Cell Struct. Funct. 33, 1-12). The concentrations of purified recombinant proteins were adjusted to coincide with each other, and the fluorescence intensity of each fluorescent protein was measured in a buffer at pH 7.0. A test conducted with respect to a protein expressed in Escherichia coli in accordance with the aforementioned Katayama, H, et al. will be hereinafter simply referred to as “Escherichia coli test.”
Both in the Escherichia coli test and the MEF cell test, AFFP was excited with use of excitation light having an excitation peak wavelength (406 nm) and mAG407 was excited with use of excitation light having an excitation peak wavelength (407 nm), in the measurement of fluorescence intensity. Further, both in the Escherichia coli test and the MEF cell test, the intensity of fluorescence emitted from AFFP was set to 1 in numerical representation and plotting of fluorescence intensity.

The nature of data set [5]: Escherichia coli test: pH dependency of fluorescence intensity. Format: physicochemical. The protocol:
As a control for AFFP, a protein was selected as appropriate from green fluorescent proteins (EGFP and Sapphire), a yellow fluorescent protein (Ypet), and red fluorescent proteins (mCherry and Tag-RFP).
With use of EGFP and mCherry as controls, an Escherichia coli test was conducted to examine pH dependency of a change in fluorescence intensity of AFFP. In the Escherichia coli test, fluorescence intensity of a purified recombinant protein obtained was measured under nine pH conditions ranging from pH 4.0 to 8.0 with an increment of 0.5. The fluorescence intensity of each fluorescent protein under each pH condition was plotted. Note that the plotting was performed in such a manner that a maximum fluorescence intensity of each fluorescent protein was set to 1, and fluorescence intensities of the fluorescent protein under other pH conditions were plotted as relative values with respect to 1.
With use of EGFP, Sapphire, Ypet, mCherry, and Tag-RFP as controls, an Escherichia coli test was conducted to examine pH dependency of a change in fluorescence intensity of AFFP. In the Escherichia coli test, fluorescence intensities in respective cases of pH 7.0 and pH 4.0 were measured. Then, fluorescence intensities of the fluorescent proteins under the two pH conditions were compared. Note that the fluorescence intensity of each protein at pH 7.0 was set to 1. […]

Where [6] appears, read: acidic condition (pH 4.0/no pepsin).
Where [7] appears, read: acidic condition with pepsin added (pH 4.0/0.05% pepsin).
Where [8] appears, read: neutral condition (pH 7.0/no pepsin).

Turning to “SRAI: FRET probe obtained by ligating Ypet, a (GGGGS)3 linker, and AFFP in this order”, the entries for the “fluorescence spectrum, excitation 410 nm” value in the data set on pepsin (setting [6]), in the data set with pepsin (setting [7]) and in the data set on pepsin (setting [8]) were “reduction in peak of fluorescence from Ypet”, “only a single peak that was based on fluorescence from AFFP” and “two peaks”, respectively. For the same molecule, the “fluorescence spectrum, excitation 500 nm” value is “single weak peak” in the data set with pepsin (setting [6]), “no fluorescence” in the data set with pepsin (setting [7]) and “single intense peak” in the data set with pepsin (setting [8]). Moreover, the “autophagy signal (bright points, high-ratio structures in ratio image)” value in the data set on MEF cells [1] is “a bright point (dot) and a red point in a ratio image were observed”. Besides, in the data set with MEF cells [2], the “autophagy signal before and after fixation” value is “little change was observed”.
As for `N#CC(C#N)=NNc1cccc(Cl)c1` [CCCP, carbonyl cyanide m-chlorophenylhydrazone], in the data set on MEF cells [3], the “mitophagy induction (red points in ratio images)” value is recorded as “significant increase of red points”.

B1: AFFP: modified mAG407 further having mutations T58S, V60S, T82A, R184S, K199E, Y210C, Y217A; green fluorescent protein used as FRET donor (protein)
chain: MVSVIKPEMKIKLCMRGTVNGHNFVIEGEGKGNPYEGTQILDLNVTEGAPLPFAYDILSTSFQYGNRAFTKYPADIQDYFKQAFPEGYHWERSMTYEDQGICTATSNISMRGDCFFYDIRFDGTNFPPNGPVMQKKTLKWEPDTEKMYVEDGVLKGDVNMRLLLEGGGHYRCDVKTTYKAKKEVSLPDAHKIDHRIEILEHDKDYNKVKLCENAVARASMLPSQAK
B1: in data set [4], the “fluorescence intensity relative to mAG407” value came to 2.5 times. In addition, the “pH dependency of fluorescence intensity” value in data set [5] (nine pH conditions, pH 4.0 to 8.0, controls EGFP and mCherry) is given as “substantially constant fluorescence intensity”. In addition, the “fluorescence intensity at pH 4.0 versus pH 7.0” value in data set [5] (pH 7.0 set to 1, controls EGFP, Sapphire, Ypet, mCherry, Tag-RFP) is listed as “not affected by a change in pH”. The “degradation by acidic protease (western blotting, fluorescence)” value in the data set on pepsin (pH 4.0/0.05% pepsin, 37° C., 2 hours) is recorded as “not degraded by acidic protease”.
